Article PMC11496786

Key:
[1] = biological target: mutant outer-arm dynein (OAD) of the Chlamydomonas mutant 214 (oda6E279K), carrying IC2 E279K (Chlamydomonas reinhardtii (endogenous in flagellar axonemes)) (UniProt Q39610)
[2] = biological target: wild-type outer-arm dynein (OAD) of Chlamydomonas (Chlamydomonas reinhardtii (endogenous in flagellar axonemes)) (UniProt Q39610)

| Substance | microtubule sliding speed in microtubule bundles formed with OAD, on perfusion with 1 mM ATP [1] | microtubule sliding speed in microtubule bundles formed with OAD, on perfusion with 1 mM ATP [2] |
| --- | --- | --- |
| mutant outer-arm dynein (OAD) of the Chlamydomonas mutant 214 (oda6E279K), carrying IC2 E279K (from UniProt Q39610 1-4499; Q39565 1-4568; Q39575 1-4485; Q39578 1-683; P27766 1-567) (complex) | 4.3 μm/sec |  |
| wild-type outer-arm dynein (OAD) of Chlamydomonas (from UniProt Q39610 1-4499; Q39565 1-4568; Q39575 1-4485; Q39578 1-683; P27766 1-567) (complex) |  | 35.3 μm/sec |
